{"source": "paper PMC9646744", "about": "“Structural dynamics of AAA + ATPase Drg1 and mechanism of benzo-diazaborine inhibition” (Nature Communications, 2022)", "proteins": {"B1": {"name": "Drg1 (wild type, S. cerevisiae) (enzyme, UniProt P32794 1-780, looked up)", "chain": "MAPKSSSSGSKKKSSASSNSADAKASKFKLPAEFITRPHPSKDHGKETCTAYIHPNVLSSLEINPGSFCTVGKIGENGILVIARAGDEEVHPVNVITLSTTIRSVGNLILGDRLELKKAQVQPPYATKVTVGSLQGYNILECMEEKVIQKLLDDSGVIMPGMIFQNLKTKAGDESIDVVITDASDDSLPDVSQLDLNMDDMYGGLDNLFYLSPPFIFRKGSTHITFSKETQANRKYNLPEPLSYAAVGGLDKEIESLKSAIEIPLHQPTLFSSFGVSPPRGILLHGPPGTGKTMLLRVVANTSNAHVLTINGPSIVSKYLGETEAALRDIFNEARKYQPSIIFIDEIDSIAPNRANDDSGEVESRVVATLLTLMDGMGAAGKVVVIAATNRPNSVDPALRRPGRFDQEVEIGIPDVDARFDILTKQFSRMSSDRHVLDSEAIKYIASKTHGYVGADLTALCRESVMKTIQRGLGTDANIDKFSLKVTLKDVESAMVDIRPSAMREIFLEMPKVYWSDIGGQEELKTKMKEMIQLPLEASETFARLGISAPKGVLLYGPPGCSKTLTAKALATESGINFLAVKGPEIFNKYVGESERAIREIFRKARSAAPSIIFFDEIDALSPDRDGSSTSAANHVLTSLLNEIDGVEELKGVVIVAATNRPDEIDAALLRPGRLDRHIYVGPPDVNARLEILKKCTKKFNTEESGVDLHELADRTEGYSGAEVVLLCQEAGLAAIMEDLDVAKVELRHFEKAFKGIARGITPEMLSYYEEFALRSGSSS", "notes": "Drg1, type II AAA+ ATPase encoded by AFG2, S. cerevisiae (genome of strain BY4741), full length; Hexamers assembled in vitro with ADP, AMPPNP, ADP/AMPPNP/benzo-diazaborine or ATP/benzo-diazaborine; stabilised by GraFix (glutaraldehyde) for cryo-EM; also called Drg1^WT; Drg1 hexamer; source: E. coli Transetta (DE3), purified (Ni-NTA, TEV cleavage, Mono Q, size-exclusion chromatography); not shown: …"}, "B2": {"name": "Drg1 E346Q/E617Q double mutant (Walker B motifs of D1 and D2) (enzyme, S. cerevisiae, UniProt P32794 1-780, looked up)", "chain": "B1 chain with E346Q, E617Q", "notes": "Drg1, type II AAA+ ATPase encoded by AFG2, S. cerevisiae, full length, with the Walker B mutations E346Q and E617Q; Incubated with 5 mM ATP before size-exclusion chromatography; the atomic model covers residues 29 to 777; also called mutant Drg1; double mutant Drg1; source: E. coli Transetta (DE3), purified (Ni-NTA, TEV cleavage, Mono Q, size-exclusion chromatography); not shown: His6, …"}}, "key": {"[1]": {"biological_target": "the molecule itself", "experiment": "negative-staining electron microscopy; Drg1 hexamers assembled in vitro with ADP, AMPPNP, ADP/AMPPNP/benzo-diazaborine or ATP/benzo-diazaborine; 0.02 mg/mL, 2% uranyl acetate, carbon-coated copper grids"}, "[2]": {"biological_target": "the molecule itself", "experiment": "cryo-EM structure; Drg1 E346Q/E617Q with ATP; GraFix (glycerol gradient with 0-0.05% glutaraldehyde); 50 mM HEPES-KOH pH 6.8, 150 mM KCl, 5 mM MgCl2, 1 mM DTT, 1 mM nucleotide; protomer with protomer in the hexamer"}}, "note": "Changes are numbered by the printed parent chain. Names and notes keep the numbering of the source.", "data": [{"protein": "B1", "values": [{"measurement": "stoichiometry N", "setting": "[1]", "value": 6}]}, {"protein": "B2", "values": [{"measurement": "stoichiometry N", "setting": "[2]", "value": 6}]}]}
